Laboratory results: patent US20210292393A1 (published 2021)
Substitutions are numbered along the chain they refer to.

B1: antibody 477 (antibody, V domains shown)
VH: QVQLVESGGGVVQPGRSLRLSCAASGITFSSYAMHWVRQAPGKGLEWVAVISYDGSDKYHADSVKGRFAISRDNSKNTLYLQMNSLRAEDTAVYYCAKDKGIAVAGTGWIRPDPEYYFDYWGQGTLVTVSS
VL: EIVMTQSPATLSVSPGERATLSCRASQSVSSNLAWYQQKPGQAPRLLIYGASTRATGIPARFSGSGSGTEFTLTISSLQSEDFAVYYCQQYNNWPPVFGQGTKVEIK
B2: antibody 480 (antibody, V domains shown)
VH: QVQLVESGGGVVQPGRSLRLSCAASGFTFSSYAMHWVRQAPGKGLEWVAVISYDGNNKYYADSVKGRFTISRDNSKNTLYLQMNSLRAEDTAVYYCVRTNSGSYYAAFDYWGQGTLVTVSS
VL: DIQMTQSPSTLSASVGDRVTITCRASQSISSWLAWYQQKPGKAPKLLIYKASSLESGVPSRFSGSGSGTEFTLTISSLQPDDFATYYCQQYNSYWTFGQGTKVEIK
B3: antibody 482 (antibody, V domains shown)
VH: EVQLVESGGGLVQPGGSLRLSCAASGFTFSSYWMTWVRQAPGKGLEWVANIKQDGSEKYYVDSVKGRFTISRDNAKNSLYLQMNSLRAEDTAVYYCARGVGSWYLGFDYWGQGTLVTVSS
VL: NFMLTQPHSVSESPGKTVTISCTGSSGSIASNYVQWYQQRPGSAPTTVIYEDNQRPSGVPDRFSGSIDSSSNSASLTISGLKTEDEADYYCQSYDGSSYVFGTGTKVTVL
B4: antibody 560 (antibody, V domains shown)
VH: EVQLVESGGGLVQPGGSLRLSCAASGFTISSNYMSWVRQAPGKGLEWVSVIYSGGSTYYADSVKGRFTISRDNSKNTLYLQMNSLRAEDTAVYYCAREEGEWEKDYYGMDVWGQGTTVTVSS
VL: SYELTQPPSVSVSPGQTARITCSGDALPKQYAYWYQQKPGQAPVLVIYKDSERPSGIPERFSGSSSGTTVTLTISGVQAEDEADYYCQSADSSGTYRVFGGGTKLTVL
B5: antibody 547 (antibody, V domains shown)
VH: QVHLVESGGGVVQPGRSLRLSCAASGFALSSYAMHWVRQPPGKGLEWVALISYDGSVKKYADSVKGRITVSGDNSRNTLHLQINSLRADDTAVYYCVRGGVSGPNSFDLWGHGTMVTVSS
VL: DVVLTQSPLSLPVTLGQPASISCRSSQSLEYSVGNTYVNWFQQRPGQSPRRLIYKVSNRDSGVPDRFSGSGSGTDFTLQISRVEADDVGIYYCMQGTHWPVTFGQGTKVEIK
B6: antibody 569 (antibody, V domains shown)
VH: B2 VH with N56S, V97A, T99A, N100S, S103G, Y105Q, A106G, A107P, Y110P
VL: EIVLTQSPATLSLSPGERATLSCRASQSVSSYLAWYQQKPGQAPRLLIYDASNRATGIPARFSGSGSGTDFTLTISSLEPEDFAVYYCQQRSSPFGPGTKVDIK
B7: antibody 548 (antibody, V domains shown)
VH: B2 VH with N56S, S85N, V97A, R98K, T99S, N100G, Y105L, A106S, Y110I, L116M
VL: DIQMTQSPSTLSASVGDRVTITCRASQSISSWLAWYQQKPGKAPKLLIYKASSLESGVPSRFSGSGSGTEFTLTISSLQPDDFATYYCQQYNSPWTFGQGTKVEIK
B8: antibody 565 (antibody, V domains shown)
VH: EVQLVESGGGLVQPGGSLRLSCTASGFTLSDHYMDWVRQAPGKGLEWVARTRNKVNSYSTEYAASVKGRFSMSRDDSKNSLYLQMTRLQTDDTAVYYCARSLMILGARGASDYWGQGTLVTVSS
VL: DIQMTQSPSTLSASAGDRVTITCRASQNIDSWLAWYQQHPGKAPNLLIYKASFLQSGVPSRFSGSGSGTEFTLTISSLQPDDFATYYCQQYNSYPVTFGQGTRLEIK
B9: antibody 563 (antibody, V domains shown)
VH: QVQLVESGGGVVQPGRSLRLSCAASGFTFSSYAMHWVRQAPGKGLEWVAVISDDGSNKYYADSVKGRFTISRDNSKNTLYLQMNSLRAEDTAVYYCARDIVATIRRLFDYWGQGTLVTVSS
VL: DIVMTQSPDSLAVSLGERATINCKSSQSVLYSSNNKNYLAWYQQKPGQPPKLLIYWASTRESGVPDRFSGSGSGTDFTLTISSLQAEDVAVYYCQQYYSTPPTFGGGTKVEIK
B10: antibody 564 (antibody, V domains shown)
VH: QVHLVESGGGVVQPGKSLRLSCAASGFIFSSFGMHWVRQPPGKGLEWLAVVSYDGSVTKYSDSFEGRFTISRDNSKNTLYLQMDSLRPEDTAVYYCAKGQGTNLLHYWGQGILVTVSS
VL: DVVLSQSPLSLPVTLGQPASISCRSSESLVYTDGDTYLHWFHQRPGQSPRRLIFKVSHRESGVPDRISGSGSGTDFTLKISRVEAEDVGVYYCMQGTHWPFTFGPGTKVDIK
B11: antibody 556 (antibody, V domains shown)
VH: QVQLVESGGGVVQPGRSLRLSCAASGFTFSSYAMHWVRQAPGKGLEWVAVISYDGSDKYYADSVKGRVTISRDNSKNTLYLQMNSLRVEDTAVFYCAKDDCSGGVCFPDYWGQGTLVTVSS
VL: QSALTQPASVSGSPGQSITISCTGTSSDVGGYNYVSWYQQHPGKAPKLMIYEVSIRPSGVSNRFSGSKSGNTASLTISGLQAEDEAAYYCSSYTSSSTLVFGGGTKLTVL
B12: antibody 566 (antibody, V domains shown)
VH: QVQLVQSGAEVKKPGASVKVSCKASGYTFTSYAMHWVRQAPGQRLEWMGWINAGNGNTKYSQKFQGRVTITRDTSASTAYMELSSLRSEDTAVYYCARDLGVAVTLHPADFDYWGQGTLVTVSS
VL: QSVLTQPPSVSGAPGQRVTISCTGSSSNIGAGYDVHWYQQLPGTAPKLLIYDNSNRPSGVPDRFSGSKSGTSASLAITGLQAEDEADYYCQSYDSSLSAVVFGGGTKLTVL
B13: antibody 395 (antibody, V domains shown)
VH: QVQLVQSGSELKKPGASVKLSCQASGYTFSNHAMNWVRQAPGQGLEWMGWINTNTGNPTYAQGFTGRFVFSLDTSVGTAYLHISSLKAEDTAFYYCARASARPGVATNLDFWGQGTLVVVSS
VL: DIQMTQSPSSLSASVGDRVTITCRTSQNIDNYLNWYQQKPGKAPNLLIYAASRLHSGVPSRFSGSGSGTDFTLIISSLQPEDLATYYCQQSYSNPLTFGPGTKVDIR
B14: antibody 365 (antibody, V domains shown)
VH: QVQLVESGGGVVQPGRSLRLSCAASGFNLSSYAMHWVRQASGKGLEWVSLISYDGSIKYYTDSVKGRFTVSGDNSKNTLFLQMNSLRPDDSALYYCVRGGVSGPNSFDMWGQGTTVTVSS
VL: B5 VL with L4M, E30V, V33D, N58I, D60A, T77A, Q79K, D86E, I90V
B15: antibody 385 (antibody, V domains shown)
VH: B2 VH with M34I, N56S, V97A, T99P, N100R, Y105W, A106G, Y110I, L116M
VL: QSVLTQPPSVSGAPGQRVTISCTGSSSNIGARYDVHWYQQLPGTAPKLLIYGNSNRPSGVPDRFSGSKSGTSASLAITGLQAEDEADYYCQSYDSSLRGVFGGGTKLTVL
B16: antibody 380 (antibody, V domains shown)
VH: QVQLVESGGGVVQPGRSLRLSCAASGFTLKNYGMHWVRQAPGKGLEWVIVLSFDGSDEYKADSVRGRFTVSRDNSKNTLFLQMNSLRPDDTAVYYCAREQPTMIEGGRGPFDIWGQGTMVTVSS
VL: EVVMTQSPATLSVSPGDRATLSCRASQGVNSNLAWYQQKPGQAPRLLIYAASTRATGIPARFSASGSGTHFTLTISSLQSEDFAVYYCLQYNNWPPWTFGQGTKLEIK
B17: antibody 366 (antibody, V domains shown)
VH: QVQLVESGGGVVQPGRSLRLSCAASGFTFSSYAMHWVRQAPGKGLEWVAVISYDGSNKYYADSVKGRFTISRDNSKNTLYLQMNSLRAEDTAVYYCARGLVGYNWFDPWGQGTLVTVSS
VL: DIQMTQSPSSVSASVGDRVTITCRASQGISSWLAWYQQKPGKAPKLLIYAASSLQSGVPSRFSGSGSGTDFTLTISSLQPEDFATYYCQQANSFTFGPGTKVDIK
B18: antibody 407 (antibody, V domains shown)
VH: QVQLVESGGGVVQPGRSLRLSCAASGFTFSSYGMHWVRQAPGKGLEWVAVISYDGSNKYYADSVKGRFTISRDNSKNTLYLQMNSLRAEDTAVYYCAKCGWDYDFWVGQGYGMDVWGQGTTVTVSS
VL: not shown
B19: antibody 409 (antibody, V domains shown)
VH: QVTLRESGPALVKPTQTLTLTCTFSGFSLSTSGMCVSWIRQPPGKALEWLALIDWDDDKYYSTSLKTRLTISKDTSKNQVVLTMTNMDPVDTATYYCARTTYYYVSGRRAEFDPWGQGTLVTVSS
VL: NFMLTQPHSVSESPGKTVTISCTGSSGSIASNYVQWYQQRPGSAPTTVIYEDNQRPSGVPDRFSGSIDSSSNSASLTISGLKTEDEADYYCQSYDSSNQGVFGGGTKLTVL
B20: antibody 378 (antibody, V domains shown)
VH: QVQLVQSGAEVKKPGASVKVSCKASGYTFTSYYMHWVRQAPGQGLEWMGIINPSGGSTSYAQKFQGRVTMTRDTSTSTVYMELSSLRSEDTAVYYCARDSGGMDDFWSGYYSPGGDYWGQGTLVTVSS
VL: B11 VL with G31S, Y34L, V53G, I55K, A87D, S91C, T94A, S95G, L99W
B21: antibody 367 (antibody, V domains shown)
VH: QVQLVQSGAEVKKPGASVKVSCKASGYTFTGYYIHWVRQAPGQGLEWMGWINPNSGGTIYAQKFQGRVTMTRDTSISTAYMELSRLTSDDTAVYSCAREPYYDILTGYYAPRRYFDYWGQGTLVTVSS
VL: B11 VL with G31S, Q39L, E52D, I55N, A87D, Y88F, S96R, L99Y, G103T, L107V
B22: antibody 372 (antibody, V domains shown)
VH: QVQLVESGGGVVQPGRSLRLSCAASGFTFSSYAMHWVRQAPGKGLEWVAVISYDGSNKYYADSVKGRFTISRDNSKNTLYLQMNSLRAEDTAVYYCARDLGTSALLWFGELFLNYGMDVWGQGTTVTVSS
VL: QSALTQPRSVSGSPGQSVTISCTGTSSDVGGYNYVSWYQQHPGKAPKLMIYDVSKRPSGVPDRFSGSKSGNTASLTISGLQAEDEADYYCCSYAGSPILVFGGGTKLTVL
B23: antibody 405 (antibody, V domains shown)
VH: not shown
VL: B22 VL with P97Y, I98N, L99V

The binders below were run against SARS-CoV-2 full length spike protein (wild type), expressed on the surface of transiently transfected CHO … (SARS-CoV-2, UniProt P0DTC2 14-1273).

Compared with B1, B2 is lower in “median fluorescence intensity, fold over isotype control” value (shortened to “median fluorescence intensity, fold”): 30.7 fold over isotype for the first, 9.77 fold over isotype for the second.

With B3 the “median fluorescence intensity, fold” value was 2.31 fold over isotype.

Each binder was assayed against SARS-CoV-2 full length spike (S) protein, wild type, expressed on the surface of CHO cells (SARS-CoV-2, UniProt P0DTC2 14-1273).

First: B4
Second: B5
The “median fluorescence intensity, fold” value of the first is higher: 22.8 fold over isotype for the first, 10.6 fold over isotype for the second.

Compared with B6, B7 is higher in “median fluorescence intensity, fold” value: 8.78 fold over isotype for the first, 9.26 fold over isotype for the second.

Going from B8 to B9, the “median fluorescence intensity, fold” value rises from 1.11 fold over isotype to 9.67 fold over isotype.

Compared with B10, B11 is lower in “median fluorescence intensity, fold” value: 10.8 fold over isotype for the first, 7.59 fold over isotype for the second.

With B12 the “median fluorescence intensity, fold” value was 31.5 fold over isotype.

Each binder was assayed against SARS-CoV-2 full length spike protein (wild type), conjugated to beads (SARS-CoV-2, UniProt P0DTC2 14-1208).

First: B13
Second: B14
The “binding signal, bead assay” value of the first is higher: 592 fold over isotype for the first, 533 fold over isotype for the second.

First: B15
Second: B16
The “binding signal, bead assay” value of the first is higher: 602 fold over isotype for the first, 1.15 fold over isotype for the second.

Going from B17 to B18, the “binding signal, bead assay” value rises from 553 fold over isotype to 785 fold over isotype.

Going from B19 to B20, the “binding signal, bead assay” value falls from 552 fold over isotype to 526 fold over isotype.

Going from B21 to B22, the “binding signal, bead assay” value falls from 1090 fold over isotype to 823 fold over isotype.

B23 was tested, and the “binding signal, bead assay” value was 487 fold over isotype.
